B1: TRL847 (antibody, V domains shown)
VH: QVQLVESGGGLVQPGGSLRLSCVASGFTFSRFSMNWVRQAPGMGLEWVSYISDTGRTIYYADSVKGRFTISRDNDKNTLYLQMKSLRDEDSAFYYCARDPDTPFVRAFDSWGQGVLVTVSS
VL: DIVMTQSPSFLSASVGDRVTITCRTSQVISSYLAWYQQRPGKAPKLLIYAASTLQSGVPSRFSGSGSGTRFSLTISNLQPEDFATYFCQQLTTYPPITFGQGTRLEIK
notes: also called MAb TRL847
B2: TRL854 (antibody, V domains shown)
VH: QVQLVESGAEVKKPGASVRVSCKGSGYTFTAYHMHWVRQAPGQGFEWVGWINPNSGATYYTSTFEGRVTMTRDTSITTAYMELSSLRSDDTAVYYCATDIVVERDASLGGFNSYGMDVWGQGTTVTVSS
VL: DIEMTQSPLSLPVTPGEPASISCRSSQSLLHSNGYNHLAWYLQKPGRSPHLLIYLASTRASGVPDRFSGSGSGTDFTLKISRVEAEDVGIYYCMQSLQTSITFGQGTRLEIK
notes: also called MAb TRL854
B3: TRL848 (antibody, V domains shown)
VH: QVQLLESGGDVVQPGTSLRLSCAASGFSLWTSGMHWVRQAPGKGLEWVAVMSYDETKKYYADSVRGRFSISRDNSRNTLYLQMNSLRVEDTAVYFCAKPRLDYLDYFHAADSWGQGTLVSVSS
VL: DIVLTQPPSVSVAPGQTATITCGGNYIGSKSVNWYQQRPGHAPVLVVYDDSDRPSGIPDRFSGSNSRSTATTATLTISRVEAGDEADYYCQVWETSEDLWVFGGGTKLTVL
notes: also called MAb TRL848
B4: TRL849 (antibody, V domains shown)
VH: QVQLVESGPGLVKPSQTLSLTCTVSGGSISNGGYHWSWIRQHPGKGLEWIGNIYYRGSTFYDPSLKSRVTISVDTSKSQFSLKLTSVTAADTAVYYCARMPLANYDLLTGLYIGAFDLWGQGTMVTVSS
VL: DIVLTQSPATLSVSPGERATLSCRASQSVNRNLAWFQQIPGQAPRLLIFDASTRAADIPARFSGGGSGAEFTLTVSSLQPEDFAVYYCQQYDKWPPGFGQGTKVEIK
notes: also called MAb TRL849
B5: TRL845 (antibody, V domains shown)
VH: QVQLVQSGGDLVQPGGSLRLSCAASGFTFSRYSMNWVRQAPGMGLEWVAYISDTSRTIYYADSVKGRFTISRDNAKNSLYLQMKSLRDEDTAVYYCARDPDTPFVRAFDSWGQGTLVTVSS
VL: DIVLTQSPSFLSASVGDRVTITCRASQLISSYFAWYQQKPGKPPKLLIYAASTLQSGVPSRFSGSGSGTQFSLTISSLQPEDFATYYCQQLNSYPPITFGQGTRLEIK
notes: also called MAb TRL845

The target of the first assay is T1, hemagglutinin (HA) of influenza B virus B/Florida/04/2006 (Yamagata lineage) (Influenza B virus B/Florida/4/2006, UniProt E1TVD5, strain).
T1 construct: also called B/Florida/4/2006 HA; HA of B/Florida/04/2006; source: bought: Sino Biological
The assay is described as follows: ELISA. The settings on record: both partners purified. For orientation: An ELISA detects its analyte on a solid surface through an enzyme-linked reagent.
As for B1, the binding result is “binds”.

Turning to B2, the binding result was “binds”.

In the case of B3, the binding result was “binds”.

A further assay concerns the target T2, hemagglutinin (HA) of influenza B virus B/Brisbane/60/2008 (Victoria lineage) (Influenza B virus B/Brisbane/60/2008, UniProt C0LT35, strain).
T2 construct: also called B/Brisbane/60/2008 HA; source: bought: Immune Tech
Description: ELISA. The note with it: both partners purified.
In the case of B1, the binding result was “binds”.

For B2, the binding result was “binds”.

Take B3: the binding result is listed as “binds”.

As to B4, the binding result is recorded as “binds”.

As for B5, the binding result was “binds”.

The target in another assay is T3, hemagglutinin (HA) of influenza B virus B/Malaysia/2506/2004 (Victoria lineage) (Influenza B virus B/Malaysia/2506/2004; …, UniProt C0LT35, strain).
T3 construct: also called B/Malaysia/2506/2004 HA; source: bought: Protein Sciences
Description: ELISA. The note with it: both partners purified.
Turning to B1, the binding result is “binds”.

On to B2, for which the binding result is reported as “binds”.

As for B3, the binding result was “binds”.

On to B4, for which the binding result is “binds”.

Turning to B5, the binding result is listed as “binds”.

A further assay concerns the target T4, hemagglutinin (HA) of influenza B virus B/Victoria/2/1987 (Victoria lineage) (Influenza B virus B/Victoria/2/1987, UniProt P22092, strain).
T4 construct: also called B/Victoria/2/1987 HA; source: bought: Immune Tech
The assay is described as follows: ELISA. The note with it: both partners purified.
In the case of B1, the binding result is “binds”.

With B2, the binding result is given as “binds”.

With B3, the binding result is given as “binds”.

As to B4, the binding result is listed as “binds”.

Turning to B5, the binding result is “binds”.

Source of the values: paper PMC5923107 (Antimicrobial Agents and Chemotherapy, 2018).
